Test results from patent US20100008917A1 (published 2010).

T1: mouse IL-27 (muIL-27), as used in Example 5 (mouse, UniProt O35228 19-228; Q8K3I6 29-234, limits assumed)
T1 sequence (looked up) 1: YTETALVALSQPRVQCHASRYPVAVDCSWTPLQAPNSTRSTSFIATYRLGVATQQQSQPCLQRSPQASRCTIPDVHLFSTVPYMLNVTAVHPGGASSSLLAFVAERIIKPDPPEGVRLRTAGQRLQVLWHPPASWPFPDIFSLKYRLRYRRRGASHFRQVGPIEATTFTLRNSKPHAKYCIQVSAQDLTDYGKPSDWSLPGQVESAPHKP
T1 sequence (looked up) 2: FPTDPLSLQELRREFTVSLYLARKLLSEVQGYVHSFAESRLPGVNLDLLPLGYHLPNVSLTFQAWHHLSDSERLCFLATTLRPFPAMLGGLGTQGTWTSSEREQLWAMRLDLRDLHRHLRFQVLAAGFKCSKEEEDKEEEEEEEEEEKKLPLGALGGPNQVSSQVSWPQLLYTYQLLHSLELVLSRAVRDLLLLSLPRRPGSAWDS

T2: human IL-27 (huIL-27), as used in Example 5 (human, UniProt Q14213 21-229; Q8NEV9 29-243, limits assumed)
T2 sequence (looked up) 1: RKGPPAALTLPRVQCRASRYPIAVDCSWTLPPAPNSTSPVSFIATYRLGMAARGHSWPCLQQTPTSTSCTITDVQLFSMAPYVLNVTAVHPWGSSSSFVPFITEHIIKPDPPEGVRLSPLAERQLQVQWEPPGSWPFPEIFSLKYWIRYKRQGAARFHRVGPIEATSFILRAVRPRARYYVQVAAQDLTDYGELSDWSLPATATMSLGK
T2 sequence (looked up) 2: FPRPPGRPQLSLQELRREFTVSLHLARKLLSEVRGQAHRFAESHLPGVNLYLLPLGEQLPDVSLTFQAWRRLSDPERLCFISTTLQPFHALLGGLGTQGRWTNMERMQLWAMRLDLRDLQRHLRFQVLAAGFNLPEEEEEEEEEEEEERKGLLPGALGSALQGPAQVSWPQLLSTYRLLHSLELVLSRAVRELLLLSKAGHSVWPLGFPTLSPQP

B1: IL27RAm(mFc1) (Fc fusion)
chain: TRPHGSPGPLQCYSVGPLGILNCSWEPLGDLETPPVLYHQSQKYHPNRVWEVKVPSKQSWVTIPREQFTMADKLLIWGTQKGRPLWSSVSVNLETQMKPDTPQIFSQVDISEEATLEATVQWAPPVWPPQKALTCQFRYKECQAEAWTRLEPQLKTDGLTPVEMQNLEPGTCYQVSGRCQVENGYPWGEWSSPLSFQTPFLDPEDVWVSGTVCETSGKRAALLVWKDPRPCVQVTYTVWFGAGDITTTQEEVPCCKSPVPAWMEWAVVSPGNSTSWVPPTNLSLVCLAPESAPCDVGVSSADGSPGIKVTWKQGTRKPLEYVVDWAQDGDSLDKLNWTRLPPGNLSTLLPGEFKGGVPYRITVTAVYSGGLAAAPSVWGFREELVPLAGPAVWRLPDDPPGTPVVAWGEVPRHQLRGQATHYTFCIQSRGLSTVCRNVSSQTQTATLPNLHSGSFKLWVTVSTVAGQGPPGPDLSLHLPDNRIREPRGPTIKPCPPCKCPAPNLLGGPSVFIFPPKIKDVLMISLSPIVTCVVVDVSEDDPDVQISWFVNNVEVHTAQTQTHREDYNSTLRVVSALPIQHQDWMSGKEFKCKVNNKDLPAPIERTISKPKGSVRAPQVYVLPPPEEEMTKKQVTLTCMVTDFMPEDIYVEWTNNGKTELNYKNTEPVLDSDGSYFMYSKLRVEKKNWVERNSYSCSVVHEGLHNHHTTKSFSRTPGK
B2: human IL27RA-Fc5 fusion protein (Fc fusion)
chain: QGSAGPLQCYGVGPLGDLNCSWEPLGDLGAPSELHLQSQKYRSNKTQTVAVAAGRSWVAIPREQLTMSDKLLVWGTKAGQPLWPPVFVNLETQMKPNAPRLGPDVDFSEDDPLEATVHWAPPTWPSHKVLICQFHYRRCQEAAWTLLEPELKTIPLTPVEIQDLELATGYKVYGRCRMEKEEDLWGEWSPILSFQTPPSAPKDVWVSGNLCGTPGGEEPLLLWKAPGPCVQVSYKVWFWVGGRELSPEGITCCCSLIPSGAEWARVSAVNATSWEPLTNLSLVCLDSASAPRSVAVSSIAGSTELLVTWQPGPGEPLEHVVDWARDGDPLEKLNWVRLPPGNLSALLPGNFTVGVPYRITVTAVSASGLASASSVWGFREELAPLVGPTLWRLQDAPPGTPAIAWGEVPRHQLRGHLTHYTLCAQSGTSPSVCMNVSGNTQSVTLPDLPWGPCELWVTASTIAGQGPPGPILRLHLPDNTEPKSSDKTHTCPPCPAPEAEGAPSVFLFPPKPKDTLMISRTPEVTCVVVDVSHEDPEVKFNWYVDGVEVHNAKTKPREEQYNSTYRVVSVLTVLHQDWLNGKEYKCKVSNKALPSSIEKTISKAKGQPREPQVYTLPPSRDELTKNQVSLTCLVKGFYPSDIAVEWESNGQPENNYKTTPPVLDSDGSFFLYSKLTVDKSRWQQGNVFSCSVMHEALHNHYTQKSLSLSPGK

Legend:
Assay in all cases: cell-based or functional assay
[1] = molecular target: T1, mouse IL-27 (muIL-27), as used in …
[2] = molecular target: T2, human IL-27 (huIL-27), as used in …
[3] = molecular target: T1, mouse IL-27 (muIL-27), as used in …; remark: listed apart in the source
[4] = molecular target: T2, human IL-27 (huIL-27), as used in …; remark: listed apart in the source

| IC50 (nM), phospho-STAT3 in total human PBMCs stimulated with the EC90 of the ligand [1] | IC50 (nM), phospho-STAT3 in total human PBMCs stimulated with the EC90 of the ligand [2] | IC50 (nM), phospho-STAT3 in mouse spleens stimulated with the EC90 of the ligand [3] | IC50 (nM), phospho-STAT3 in mouse spleens stimulated with the EC90 of the ligand [4] | Binder |
| --- | --- | --- | --- | --- |
| 4.83 nM | 1370 nM | 0.18 nM | 9.3 nM | B1 |
| 2.97 nM | 0.95 nM | 0.14 nM | 0.32 nM | B2 |
